These results are taken from US20250145711A1 (Janssen / Centocor, published 2025).

One assay addresses T1, recombinant human PSMA (human, UniProt Q04609 44-750).
T1 construct: also called hu PSMA; prostate-specific membrane antigen
The assay is described as follows: SPR (Biacore 8K), antibody captured on anti-Fc, PSMA in solution; average of 2. Here is the method: (§1) The binding affinity of anti-PSMA to the recombinant human or cynomolgus PSMA was determined by surface plasmon resonance (SPR) using a Biacore 8K instrument (ELN PSMA-00721). The antibodies were captured on a goat anti-Fc antibody-modified C1 chip and titrated with 3-fold serial dilutions of PSMA antigen spanning concentrations of 100 nM to 3.7 nM (human PSMA) or […] 22.2-600 nM for cyno PSMA. The association and dissociation were monitored for 3 and 60 minutes, respectively, using a flow rate of 50 μL/min. Raw binding data was referenced by subtracting the analyte binding signals from blanks and analyzed using a 1:1 Langmuir binding model by the Biacore Insight evaluation software to obtain the kinetics which were used to calculate the binding affinity. The anti-PSMA were captured using an anti-human Fc antibody and the antigens were injected in solution.
A general note: SPR reads the build-up and loss of mass on a sensor chip optically.

Assay [1] deals with T2, recombinant cynomolgus PSMA (cynomolgus, UniProt A0A2K5VNZ0 44-750).
T2 construct: also called cy PSMA; cyno PSMA
The assay can be described thus: SPR (Biacore 8K), antibody captured on anti-Fc, PSMA in solution; average of 3. How it is done: as §1

For assay [2], the target named is T3, Human CD79b long isoform, recombinant extracellular domain (CD9W8.001) (human, UniProt P40259 29-159).
T3 construct: extracellular domain; also called hu CD79b long
T3 sequence (looked up): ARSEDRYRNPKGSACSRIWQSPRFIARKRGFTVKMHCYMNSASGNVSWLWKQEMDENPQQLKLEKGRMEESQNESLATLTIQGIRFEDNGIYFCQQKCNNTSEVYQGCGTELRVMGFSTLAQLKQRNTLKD
The assay can be described thus: SPR Biacore 8K, antibody captured by anti-human Fc, CD79b in solution, 25 C, 1:1 Langmuir. Here is the method: (§2) General Protocol for SPR Affinity Assessment: Affinity assessment of the bispecific and trispecific constructs against human CD79b were measured using recombinantly expressed extracellular domain of CD79b short and long isoforms (CD9W7.001 and CD9W8.001, respectively) by Surface Plasmon Resonance (SPR) using a Biacore 8 k SPR system (Biacore) at 25° C. in HBSP+ buffer. Cross-reactivity of the same antibody panel was also assessed against cyno and mouse antigens (CD9W1.001 and CD9W105.001, respectively). Briefly, a C1 sensor chip was immobilized with anti-human Fc (target immobilization levels of >400 RU) using vendor recommended amino coupling protocol. The test antibodies were captured through immobilized anti-Fc and was followed by the injection of different CD79b constructs at different concentration series (human CD79b short and long isoforms: 30 nM-0.37 nM at 3-fold dilutions; cyno and mouse CD79b: 3000 nM-37 nM at 3-fold dilutions). The association and dissociation phases were measured for 2 or 3 minutes and 30 minutes, respectively.
(§3) The raw binding sensorgrams were processed using Biacore Insight software (Biacore) by double-referencing and the processed sensorgrams were analyzed for cross-reactivity and fitted to a 1:1 Langmuir model to obtain on-rates, off-rates and affinities.

Assay [3] addresses T4, Human CD79b short isoform, recombinant extracellular domain (CD9W7.001) (human, UniProt P40259 29-159).
T4 chain: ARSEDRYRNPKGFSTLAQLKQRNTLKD
The description is as above. How it is done:
as §2, §3

The target in assay [4] is T5, Human CD79b, endogenous on diffuse large B-cell lymphoma cell lines (human, UniProt P40259 29-229).
T5 construct: On HBL-1, OCI-LY10 and Carnaval cells, which also carry CD20; also called Igβ
T5 sequence: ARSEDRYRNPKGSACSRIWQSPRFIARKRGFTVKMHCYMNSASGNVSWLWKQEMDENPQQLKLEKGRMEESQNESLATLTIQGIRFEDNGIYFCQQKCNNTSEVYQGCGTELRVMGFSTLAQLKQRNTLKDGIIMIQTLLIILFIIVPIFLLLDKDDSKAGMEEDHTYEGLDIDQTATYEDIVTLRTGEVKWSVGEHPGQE
The assay is described as follows: flow cytometry on HBL-1 cells (endogenous CD79b and CD20; the trispecific also has a CD20 arm). On the technique in general: A flow cytometer gives signals particle by particle.

Assay [5] concerns the target T5, Human CD79b, endogenous on diffuse …. The assay can be described thus: flow cytometry on Carnaval cells (endogenous CD79b and CD20; the trispecific also has a CD20 arm).
Assay [6] has the same target. The assay can be described thus: flow cytometry on OCI-LY10 cells (endogenous CD79b and CD20; the trispecific also has a CD20 arm).
The target in assay [7] is T2, recombinant cynomolgus PSMA. The assay can be described thus: SPR (Biacore 8K), antibody captured on anti-Fc, PSMA in solution; average of 2. Here is the method: as §1

T1 sequence (Q04609 44-750 limits assumed): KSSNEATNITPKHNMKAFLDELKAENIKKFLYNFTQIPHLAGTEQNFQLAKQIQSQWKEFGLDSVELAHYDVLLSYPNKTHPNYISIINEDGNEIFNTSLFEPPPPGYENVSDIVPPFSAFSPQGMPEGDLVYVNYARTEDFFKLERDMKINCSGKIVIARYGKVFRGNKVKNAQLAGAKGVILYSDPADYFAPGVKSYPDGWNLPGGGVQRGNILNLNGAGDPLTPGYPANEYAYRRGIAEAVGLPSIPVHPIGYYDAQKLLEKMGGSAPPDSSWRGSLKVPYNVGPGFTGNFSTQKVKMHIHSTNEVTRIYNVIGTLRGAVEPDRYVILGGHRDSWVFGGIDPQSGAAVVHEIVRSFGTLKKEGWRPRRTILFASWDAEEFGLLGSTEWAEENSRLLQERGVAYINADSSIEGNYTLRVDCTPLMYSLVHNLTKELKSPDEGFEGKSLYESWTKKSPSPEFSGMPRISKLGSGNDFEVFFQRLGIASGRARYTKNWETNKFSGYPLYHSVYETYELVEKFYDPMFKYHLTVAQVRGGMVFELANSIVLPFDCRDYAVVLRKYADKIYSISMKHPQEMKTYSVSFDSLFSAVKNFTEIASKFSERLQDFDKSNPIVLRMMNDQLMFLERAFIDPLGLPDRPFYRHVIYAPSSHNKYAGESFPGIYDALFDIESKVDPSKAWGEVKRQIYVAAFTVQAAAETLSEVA

B1: PS3B1391 (bispecific antibody, human IgG1, kappa, L234A L235A)
chain: EIVLTQSPATLSASPGERVTLSCSASSSVSYMNWYQQKPGQAPRRWIYDSSKLASGVPARFSGSGSGRDYTLTISSLEPEDFAVYYCQQWSRNPPTFGGGTKVEIKGGSEGKSSGSGSESKSTGGSQVQLVQSGAEVKKPGSSVKVSCKASGYTFTRSTMHWVKQAPGQGLEWIGYINPSSAYTNYNQKFQGRVTLTADKSTSTAYMELSSLRSEDTAVYYCASPQVHYDYAGFPYWGQGTLVTVSSEPKSSDKTHTCPPCPAPEAAGGPSVFLFPPKPKDTLMISRTPEVTCVVVSVSHEDPEVKFNWYVDGVEVHNAKTKPREEQYNSTYRVVSVLTVLHQDWLNGKEYKCKVSNKALPAPIEKTISKAKGQPREPQVYTLPPSREEMTKNQVSLWCLVKGFYPSDIAVEWESNGQPENNYKTTPPVLDSDGSFFLYSKLTVDKSRWQQGNVFSCSVMHEALHNHYTQKSLSLSPGK
heavy: EVQLVESGGGLVKPGGSLRLSCVASGFTFSFYSMNWVRQAPGKGLDWVSSISSSGNYIYYADSVKGRFTISRDNAKNSLHLHMNSLKAEDTAMYFCARSYSGSYDAFDFWGQGTMVTVSSASTKGPSVFPLAPSSKSTSGGTAALGCLVKDYFPEPVTVSWNSGALTSGVHTFPAVLQSSGLYSLSSVVTVPSSSLGTQTYICNVNHKPSNTKVDKKVEPKSCDKTHTCPPCPAPEAAGGPSVFLFPPKPKDTLMISRTPEVTCVVVSVSHEDPEVKFNWYVDGVEVHNAKTKPREEQYNSTYRVVSVLTVLHQDWLNGKEYKCKVSNKALPAPIEKTISKAKGQPREPQVYTLPPSREEMTKNQVSLSCAVKGFYPSDIAVEWESNGQPENNYKTTPPVLDSDGSFFLVSKLTVDKSRWQQGNVFSCSVMHEALHNRFTQKSLSLSPGK
light: EIVMTQSPGTLSLSPGERATLSCRASQSVSSSFLAWYQQKPGQAPRLLISGASSRATGIPDRFSVSGSGTDFTLTISRLEPEDFAVYYCQQYGVSPWTFGQGTKVEIKRTVAAPSVFIFPPSDEQLKSGTASVVCLLNNFYPREAKVQWKVDNALQSGNSQESVTEQDSKDSTYSLSSTLTLSKADYEKHKVYACEVTHQGLSSPVTKSFNRGEC
notes: HC 1: N-term scFv LH CD3B2030 N106A; HC 2: N-term Fab PSMHB49SC1133_011A11_1; LC1 is given as NA; also called PS3B1391.002
Turning to B1, in the assay with recombinant human PSMA, the Kd – broadly, a measure of binding affinity in units of concentration – was determined as 0.1 nM; the koff (commonly the rate constant with which the complex falls apart) was 4.8e-05 s⁻¹; the kon (in general, the rate constant with which the complex forms) was 480000 M⁻¹ s⁻¹. For the same molecule, in assay [1], the Kd is 0.126 nM, the koff was 1.96e-05 s⁻¹ and the kon came to 157000 M⁻¹ s⁻¹.

B2: C923B74 (other)
heavy: QVQLQQSGPGLVKPSQTLSLTCAISGDSVSSNSATWNWIRQSPSRGLEWLGRTYYRSKWYNDYTVSVKSRITINPDTSKNQFSLQLNSVTPEDTAVYYCTRVDIAFDYWGQGTLVTVSSASTKGPSVFPLAPSSKSTSGGTAALGCLVKDYFPEPVTVSWNSGALTSGVHTFPAVLQSSGLYSLSSVVTVPSSSLGTQTYICNVNHKPSNTKVDKKVEPKSCDKTHTCPPCPAPEAAGGPSVFLFPPKPKDTLMISRTPEVTCVVVSVSHEDPEVKFNWYVDGVEVHNAKTKPREEQYNSTYRVVSVLTVLHQDWLNGKEYKCKVSNKALPAPIEKTISKAKGQPREPQVYTLPPSREEMTKNQVSLSCAVKGFYPSDIAVEWESNGQPENNYKTTPPVLDSDGSFFLVSKLTVDKSRWQQGNVFSCSVMHEALHNRFTQKSLSLSPGK
light: QTVVTQPPSVSEAPRQRVTISCSGSSSNIGNHGVNWYQQLPGKAPKLLIYNDDLLPSGVSDRFSGSTSGTSGSLAISGLQSEDEADYYCAAWDDSLNGVVFGGGTKLTVLGQPKAAPSVTLFPPSSEELQANKATLVCLISDFYPGAVTVAWKADSSPVKAGVETTTPSKQSNNKYAASSYLSLTPEQWKSHRSYSCQVTHEGSTVEKTVAPTECS
chain: EIVLTQSPATLSASPGERVTLSCSASSSVSYMNWYQQKPGQAPRRWIYDSSKLASGVPARFSGSGSGRDYTLTISSLEPEDFAVYYCQQWSRNPPTFGGGTKVEIKGGSEGKSSGSGSESKSTGGSQVQLVQSGAEVKKPGSSVKVSCKASGYTFTRSTMHWVKQAPGQGLEWIGYINPSSAYTNYNQKFQGRVTLTADKSTSTAYMELSSLRSEDTAVYYCASPQVHYDYAGFPYWGQGTLVTVSSEPKSSDKTHTCPPCPAPEAAGGPSVFLFPPKPKDTLMISRTPEVTCVVVSVSHEDPEVKFNWYVDGVEVHNAKTKPREEQYNSTYRVVSVLTVLHQDWLNGKEYKCKVSNKALPAPIEKTISKAKGQPREPQVYTLPPSREEMTKNQVSLWCLVKGFYPSDIAVEWESNGQPENNYKTTPPVLDSDGSFFLYSKLTVDKSRWQQGNVFSCSVMHEALHNHYTQKSLSLSPGKGGSEGKSSGSGSESKSTGGSAIQLTQSPSSLSASVGDRVTITCRASSSVSYIHWFQQKPGKAPKPLIYATSNLASGVPSRFSGSGSGTDFTLTISSLQPEDFATYYCQQWTSNPPTFGQGTKLEIKGGSEGKSSGSGSESKSTGGSQVQLVQSGAEVKKPGSSVKVSCKASGYTFTSYNMHWVRQAPGQGLEWMGAIYPGNGDTSYAQKFQGRVTITADKSTSTAYMELSSLRSEDTAVYYCARSTYYGGDWYFNVWGQGTLVTVSS
notes: Trispecific IgG1 antibody; HC1/LC form the CD79b Fab; HC2 is CD3 scFv-Fc-linker-CD20 scFv; also called CD79bxCD20xCD3 trispecific; CD9B330-N31S / CD3B2030-N106A-scFv-LH-C20B22
B2: the Kd is 0.023 nM in assay [2] and 0.39 nM in assay [3]. Further, the EC50 (usually the concentration giving half of the maximal effect) stood at 52 nM in assay [4], 23 nM in assay [5] and 66 nM in assay [6].

B3: PS3B1505 (bispecific antibody, human IgG1, lambda, L234A L235A)
heavy 1: QVQLQQSGPRLVRPSQTLSLTCAISGDSVFNNNAAWSWIRQSPSRGLEWLGRTYYRSKWLYDYAVSVKSRITVNPDTSRNQFTLQLNSVTPEDTALYYCARGYSSSFDYWGQGTLVTVSSASTKGPSVFPLAPSSKSTSGGTAALGCLVKDYFPEPVTVSWNSGALTSGVHTFPAVLQSSGLYSLSSVVTVPSSSLGTQTYICNVNHKPSNTKVDKKVEPKSCDKTHTCPPCPAPEAAGGPSVFLFPPKPKDTLMISRTPEVTCVVVSVSHEDPEVKFNWYVDGVEVHNAKTKPREEQYNSTYRVVSVLTVLHQDWLNGKEYKCKVSNKALPAPIEKTISKAKGQPREPQVYTLPPSREEMTKNQVSLTCLVKGFYPSDIAVEWESNGQPENNYKTTPPVLDSDGSFLLYSKLTVDKSRWQQGNVFSCSVMHEALHNHYTQKSLSLSPGK
light 1: QSALTQPASVSGSPGQSITISCTGTSSNIGTYKFVSWYQQHPDKAPKVLLYEVSKRPSGVSSRFSGSKSGNTASLTISGLQAEDQADYHCVSYAGSGTLLFGGGTKLTVLGQPKAAPSVTLFPPSSEELQANKATLVCLISDFYPGAVTVAWKADSSPVKAGVETTTPSKQSNNKYAASSYLSLTPEQWKSHRSYSCQVTHEGSTVEKTVAPTECS
heavy 2: EVQLVESGGGLVQPGGSLRLSCAASGFTFSSYAMSWVRQAPGKGLEWVSAISGGIGSTYYADSVKGRFTISRDNSKNTLWLQMNSLRAEDTAVYYCAKDAVGATPYYFDYWGQGTLVTVSSASTKGPSVFPLAPSSKSTSGGTAALGCLVKDYFPEPVTVSWNSGALTSGVHTFPAVLQSSGLYSLSSVVTVPSSSLGTQTYICNVNHKPSNTKVDKKVEPKSCDKTHTCPPCPAPEAAGGPSVFLFPPKPKDTLMISRTPEVTCVVVSVSHEDPEVKFNWYVDGVEVHNAKTKPREEQYNSTYRVVSVLTVLHQDWLNGKEYKCKVSNKALPAPIEKTISKAKGQPREPQVYTLPPSREEMTKNQVSLTCLVKGFYPSDIAVEWESNGQPENNYKTTPPVLDSDGSFFLYSRLTVDKSRWQQGNVFSCSVMHEALHNHYTQKSLSLSPGK
light 2: QSVLTQPPSVSAAPGQKVTISCSGSSSNIGINYVSWYQQLPGTAPKLLIYDNNKRPSGIPDRFSGSKSGTSATLGITGLQTGDEADYYCGTWDSSLSAVVFGGGTKLTVLGQPKAAPSVTLFPPSSEELQANKATLVCLISDFYPGAVTVAWKADSSPVKAGVETTTPSKQSNNKYAASSYLSLTPEQWKSHRSYSCQVTHEGSTVEKTVAPTECS
notes: HC1 CD3B376-Fab x HC2 PSMB896-G100A IgG1 DuoBody; also called PS3B1505.001
As to B3, in the assay with recombinant human PSMA, the Kd was 0.393 nM, the koff came to 9.1e-05 s⁻¹ and the kon was determined as 232000 M⁻¹ s⁻¹. In addition, in assay [7], the Kd came to 5.01 nM, the off-rate constant (koff) was 0.00124 s⁻¹ and the kon turned out to be 429000 M⁻¹ s⁻¹.
